Laboratory results published in PMC8782670, “Production and Characterization of RNA Aptamers Specific for Amyloid Fibril Epitopes”.

Target: beta2-microglobulin, monomer at pH 3.6 (biotinylated, partially folded) (human, UniProt P61769 21-119)
Experiment: SPR; pH 3.6, 250 mM NaCl; apparent, 1:1 fit; SPR: Buffer A pH 3.6, 250 mM NaCl, 25 C, 0.5 uM RNA; dot blot: Buffer A pH 7.0, 1 M NaCl, 10 ug/ml BSA and yeast tRNA, 21 C (Buffer A composition not given)
Details: protein: recombinant; tags: biotin; interrupted stem-loop (Mfold)

Chain of beta2-microglobulin, monomer at pH 3.6 (biotinylated, partially folded) (P61769 21-119): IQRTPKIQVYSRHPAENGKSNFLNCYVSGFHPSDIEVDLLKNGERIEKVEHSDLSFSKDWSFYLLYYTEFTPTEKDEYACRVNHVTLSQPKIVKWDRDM

B1: M-2 (structured_RNA)
RNA: GGGCCAAGCUUGCAUGCCUGCAGUUGGUUACGCGUACAGUGAAACUCGGAAAGUUGAAGGGCCAAAUGGGAACGGUACCGAGCUCAGGUUCCC
- Kd: ~10 nM
